Test results: the supplement of paper PMC7125110
± gives the standard error. For some assays here: Variants at the floor of the assay were thinned out.

B1: glmS ribozyme (parent)
chain: AUAAAAGCGCCAGAACUACAGAAAUGUAGUUGACGAGGAGGAGGUUUAUCGAAUUUUCGGCGGAUGCCUCCAAA

Tests used:
Details in all cases: with glucosamine-6-phosphate
glucosamine-6-phosphate [1] = variants of: B1; test: kcat; higher = faster cleavage; RNA array
In short: (§1)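 Glucosamine-6-phosphate in HEPES/KCl/Mg(OAc)2 buffer, at 40 μM to 10 mM, was flowed over barcoded ribozyme variants transcribed in situ by E. coli RNA polymerase on sequenced MiSeq chips. Tracking was through a hybridised Cy3 probe at 37 °C. kobs, kcat and KM came from exponential decay fits and weighted Michaelis–Menten fits of normalised per-tile medians.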

glucosamine-6-phosphate [2] = variants of: B1; test: KM; higher = weaker cofactor use; RNA array
In short: as §1

glucosamine-6-phosphate [3] = variants of: B1; test: self-cleavage kobs at 160 uM GlcN6P; higher = faster cleavage; RNA array
In short: as §1

glucosamine-6-phosphate [4] = variants of: B1; test: self-cleavage kobs at 640 uM GlcN6P; higher = faster cleavage; RNA array
In short: as §1

glucosamine-6-phosphate [5] = variants of: B1; test: self-cleavage kobs at 2500 uM GlcN6P; higher = faster cleavage; RNA array
In short: as §1

glucosamine-6-phosphate [6] = variants of: B1; test: self-cleavage kobs at 10000 uM GlcN6P; higher = faster cleavage; RNA array
In short: as §1

glucosamine-6-phosphate [7] = variants of: B1; test: self-cleavage kobs at 40 uM GlcN6P; higher = faster cleavage; RNA array
In short: as §1

Row | Variant | kcat (glucosamine-6-phosphate [1]) | KM (glucosamine-6-phosphate [2]) | self-cleavage kobs at 160 uM GlcN6P (glucosamine-6-phosphate [3]) | self-cleavage kobs at 640 uM GlcN6P (glucosamine-6-phosphate [4]) | self-cleavage kobs at 2500 uM GlcN6P (glucosamine-6-phosphate [5]) | self-cleavage kobs at 10000 uM GlcN6P (glucosamine-6-phosphate [6]) | self-cleavage kobs at 40 uM GlcN6P (glucosamine-6-phosphate [7])
1 | G40C U47G | 0.000514 ± 9.8e-05 s⁻¹ | 1190 ± 440 µM | 7.96e-05 ± 1.8e-05 s⁻¹ | 0.000157 ± 2.4e-05 s⁻¹ | 0.00041 ± 5.3e-05 s⁻¹ | 0.000412 ± 7.9e-05 s⁻¹ | 
2 | U65C C67G | 6.8e-05 ± 3.8e-06 s⁻¹ |  |  | 5.5e-05 ± 1.4e-05 s⁻¹ |  | 6.72e-05 ± 8.1e-06 s⁻¹ | 
3 | A39C A53G | 0.00638 ± 0.001 s⁻¹ | 1890 ± 400 µM | 0.000404 ± 6.3e-05 s⁻¹ | 0.00157 ± 0.00027 s⁻¹ | 0.00372 ± 0.00061 s⁻¹ | 0.00541 ± 0.0007 s⁻¹ | 0.000151 ± 1.5e-05 s⁻¹
4 | C11A U49A | < 1e-05 s⁻¹ |  |  | < 1e-05 s⁻¹ | < 1e-05 s⁻¹ |  | 
5 | G41U | 0.00376 ± 0.0013 s⁻¹ |  | 0.000391 ± 6.3e-05 s⁻¹ | 0.00102 ± 9.3e-05 s⁻¹ | 0.00263 ± 0.00015 s⁻¹ |  | 0.000171 ± 1.9e-05 s⁻¹
6 | G29C G40A | 0.000208 ± 2.8e-05 s⁻¹ | 747 ± 260 µM | 3.05e-05 ± 9.1e-06 s⁻¹ | 0.000102 ± 1.6e-05 s⁻¹ | 0.000221 ± 3.6e-05 s⁻¹ | 0.000178 ± 2.1e-05 s⁻¹ | 
7 | A53U C67A | 0.00367 ± 0.00077 s⁻¹ | 785 ± 230 µM | 0.000559 ± 8.4e-05 s⁻¹ | 0.0014 ± 0.00022 s⁻¹ |  | 0.00376 ± 0.00054 s⁻¹ | 0.000214 ± 2.6e-05 s⁻¹
8 | A12U U47G U57C | 0.000776 ± 0.00016 s⁻¹ | 8650 ± 3200 µM |  |  | 0.000172 ± 4.9e-05 s⁻¹ | 0.000417 ± 6.9e-05 s⁻¹ | 
9 | U46A U56C | 0.0005 ± 4.2e-05 s⁻¹ | 1350 ± 250 µM |  | 0.000158 ± 3.2e-05 s⁻¹ | 0.000362 ± 8.4e-05 s⁻¹ | 0.000424 ± 8.3e-05 s⁻¹ | 
10 | U45A U46C | 0.0497 ± 0.021 s⁻¹ | 3030 ± 1500 µM | 0.00197 ± 0.00065 s⁻¹ |  | 0.0334 ± 0.017 s⁻¹ | 0.0365 ± 0.012 s⁻¹ | 0.000726 ± 0.00015 s⁻¹
11 | U54G U65C | 0.00111 ± 0.0001 s⁻¹ | 2390 ± 350 µM | 7.61e-05 ± 1.2e-05 s⁻¹ | 0.000211 ± 3.4e-05 s⁻¹ | 0.000567 ± 9.8e-05 s⁻¹ | 0.00091 ± 0.00012 s⁻¹ | 
12 | A33C A48U | < 1e-05 s⁻¹ |  | < 1e-05 s⁻¹ |  |  |  | < 1e-05 s⁻¹
13 | A14C A42G | 0.0097 ± 0.0025 s⁻¹ | 2690 ± 890 µM | 0.000475 ± 7.2e-05 s⁻¹ | 0.00154 ± 0.00023 s⁻¹ | 0.00494 ± 0.00075 s⁻¹ | 0.00788 ± 0.0011 s⁻¹ | 0.000181 ± 2e-05 s⁻¹
14 | A15C C68G | 2.69e-05 ± 6.5e-06 s⁻¹ |  |  |  | 3.22e-05 ± 9e-06 s⁻¹ |  | 
15 | C10A C50U | < 1e-05 s⁻¹ |  |  |  |  | < 1e-05 s⁻¹ | 
16 | A42G C50A | 4.52e-05 ± 2.6e-06 s⁻¹ | 7070 ± 920 µM |  |  |  |  | 
17 | G60A A64G | 2.24e-05 ± 4.8e-07 s⁻¹ | 1390 ± 160 µM |  |  |  |  | 

Row | Variant | kcat (glucosamine-6-phosphate [1]) | KM (glucosamine-6-phosphate [2]) | self-cleavage kobs at 160 uM GlcN6P (glucosamine-6-phosphate [3]) | self-cleavage kobs at 640 uM GlcN6P (glucosamine-6-phosphate [4]) | self-cleavage kobs at 2500 uM GlcN6P (glucosamine-6-phosphate [5]) | self-cleavage kobs at 10000 uM GlcN6P (glucosamine-6-phosphate [6]) | self-cleavage kobs at 40 uM GlcN6P (glucosamine-6-phosphate [7])
18 | A39C C67G | 0.000391 ± 0.00014 s⁻¹ |  | 3.74e-05 ± 7.5e-06 s⁻¹ | 8.41e-05 ± 7.6e-06 s⁻¹ | 0.000216 ± 1.7e-05 s⁻¹ |  | 2.13e-05 ± 7.7e-06 s⁻¹
19 | G40A G41C | 0.000139 ± 2e-05 s⁻¹ |  |  | 4.87e-05 ± 1.8e-05 s⁻¹ | 0.000179 ± 4.9e-05 s⁻¹ | 0.000123 ± 1.4e-05 s⁻¹ | 
20 | G29C C68G | 2.94e-05 ± 9e-06 s⁻¹ |  |  | 5.49e-05 ± 1.9e-05 s⁻¹ | 3.19e-05 ± 1.5e-05 s⁻¹ |  | 
21 | A14U G29A | 0.00088 ± 5.1e-05 s⁻¹ | 3420 ± 290 µM | 4.16e-05 ± 1e-05 s⁻¹ | 0.000137 ± 1.7e-05 s⁻¹ | 0.000368 ± 5.1e-05 s⁻¹ | 0.000665 ± 0.00011 s⁻¹ | 
22 | C11U G66A U69A | 5.61e-05 ± 6.6e-06 s⁻¹ |  |  | 4.24e-05 ± 1.5e-05 s⁻¹ | 4.46e-05 ± 1.3e-05 s⁻¹ | 6.32e-05 ± 1.9e-05 s⁻¹ | 
23 | A42C U55G | < 1e-05 s⁻¹ |  |  |  |  |  | < 1e-05 s⁻¹
24 | A14U A15G G43A | 1.46e-05 ± 6.9e-06 s⁻¹ |  |  |  |  |  | 
25 | A15C U47A | 0.00412 ± 0.0012 s⁻¹ | 2080 ± 870 µM | 0.000266 ± 5.3e-05 s⁻¹ | 0.000773 ± 0.00011 s⁻¹ | 0.00226 ± 0.00034 s⁻¹ | 0.00367 ± 0.00044 s⁻¹ | 0.000116 ± 1.4e-05 s⁻¹
26 | U30G U56A | 0.00811 ± 0.0019 s⁻¹ | 2730 ± 850 µM | 0.000498 ± 0.0001 s⁻¹ | 0.00146 ± 0.00024 s⁻¹ | 0.003 ± 0.00057 s⁻¹ | 0.00771 ± 0.0011 s⁻¹ | 0.000125 ± 1.6e-05 s⁻¹
27 | U57A C67G | 5.87e-05 ± 1.1e-05 s⁻¹ |  |  | 5.39e-05 ± 1.5e-05 s⁻¹ | 3.77e-05 ± 1.1e-05 s⁻¹ | 7.6e-05 ± 1.1e-05 s⁻¹ | 
28 | C11U A15C | 0.000738 ± 0.00012 s⁻¹ | 2490 ± 850 µM | 2.57e-05 ± 1.1e-05 s⁻¹ | 0.000194 ± 2.9e-05 s⁻¹ | 0.000368 ± 6.1e-05 s⁻¹ | 0.000585 ± 4.9e-05 s⁻¹ | 
29 | U47C U57C | 6.99e-05 ± 7.5e-06 s⁻¹ |  |  |  | 5.62e-05 ± 1.1e-05 s⁻¹ | 6.24e-05 ± 9.4e-06 s⁻¹ | 
30 | A52U C71G | 9.41e-05 ± 6.3e-06 s⁻¹ | 1700 ± 380 µM |  | 3.14e-05 ± 1.3e-05 s⁻¹ | 5.28e-05 ± 9.2e-06 s⁻¹ | 8.19e-05 ± 1e-05 s⁻¹ | 
31 | A52U C71A | 0.000156 ± 2.6e-05 s⁻¹ |  |  | 5.96e-05 ± 1.3e-05 s⁻¹ |  | 0.000144 ± 1.6e-05 s⁻¹ | < 1e-05 s⁻¹
32 | G29C U49G | 1.82e-05 ± 5.3e-06 s⁻¹ |  |  |  |  |  | < 1e-05 s⁻¹
33 | C50A C68G | 5.05e-05 ± 1.7e-05 s⁻¹ |  | 6.35e-05 ± 1.2e-05 s⁻¹ | 8.11e-05 ± 1.6e-05 s⁻¹ | 5.89e-05 ± 1e-05 s⁻¹ |  | 2.54e-05 ± 1e-05 s⁻¹
